Test results: paper PMC8515945 (Microbiology Spectrum, 2021)

Molecular target: SARS-CoV-2 spike protein receptor-binding domain (residues 319 to 533), wild type (SARS-CoV-2, UniProt P0DTC2)
Experiment: SPR
Conditions: both partners purified

B1: nCoV617 (full-length recombinant human IgG1) (antibody, V domains shown)
VH: QVQLVESGGGVVQPGRSLRLSCAASGFTFSSYAMHWVRQAPGKGLEWVALISYDGSNKYADSVKGRFTISRDNSKNTLYLQMNSLRAEDTAVYYCARGLGLRFLEWPISSYWGQGTLVTVSS
VL: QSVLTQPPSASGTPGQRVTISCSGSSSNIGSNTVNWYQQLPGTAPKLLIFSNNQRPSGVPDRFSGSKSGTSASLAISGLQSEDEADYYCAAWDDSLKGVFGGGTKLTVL
notes: also called MAb nCoV617; NAb nCoV617
With B1 the Kd was 4.23 nM.
